Measurements taken from patent US20190367620A1 (Merck KGaA, published 2019).

Experiments:
Assay in all cases: SPR; free energy change relative to wild-type D2
[1] = target: T1, Human FGFR1 D2-His6 (human, UniProt P11362 22-254)
T1 construct: also called D2 domain; F3FR1c-D2
T1 sequence: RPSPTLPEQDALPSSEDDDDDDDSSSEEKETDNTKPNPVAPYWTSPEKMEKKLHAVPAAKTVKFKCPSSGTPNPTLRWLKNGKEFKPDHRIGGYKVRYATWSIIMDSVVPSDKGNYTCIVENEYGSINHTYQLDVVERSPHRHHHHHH
In short: (§1)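 Point mutants of FGFR1 D2, expressed in HEK cells, were tested by SPR against mAb #A08 captured via anti-human Fc to ~200 RU, in HBS-EP+ at 25° C. KD came from a 1:1 Langmuir fit (koff/kon), and ΔΔG was derived from the ratio of wild-type to mutant KD.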

[2] = target: T2, FGFR1 D2 point mutant E47A (human, UniProt P11362 22-254)
T2 chain: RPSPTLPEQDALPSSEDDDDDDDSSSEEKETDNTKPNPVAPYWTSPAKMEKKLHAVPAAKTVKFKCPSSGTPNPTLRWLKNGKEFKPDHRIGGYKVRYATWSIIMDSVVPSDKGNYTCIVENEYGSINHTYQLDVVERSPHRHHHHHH
In short: as §1

[3] = target: T3, FGFR1 D2 point mutant E50A (human, UniProt P11362 22-254)
T3 chain: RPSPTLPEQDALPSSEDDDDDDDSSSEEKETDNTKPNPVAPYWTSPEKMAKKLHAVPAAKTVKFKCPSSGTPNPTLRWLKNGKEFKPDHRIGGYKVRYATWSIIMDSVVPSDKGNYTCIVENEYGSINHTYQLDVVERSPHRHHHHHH
In short: as §1

[4] = target: T4, FGFR1 D2 point mutant K65A (human, UniProt P11362 22-254)
T4 chain: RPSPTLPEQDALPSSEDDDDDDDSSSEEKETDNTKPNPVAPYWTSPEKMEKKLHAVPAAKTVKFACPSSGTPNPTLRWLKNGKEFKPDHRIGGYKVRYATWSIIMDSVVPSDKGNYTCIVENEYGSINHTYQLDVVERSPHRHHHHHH
In short: as §1

[5] = target: T5, FGFR1 D2 point mutant P87A (human, UniProt P11362 22-254)
T5 chain: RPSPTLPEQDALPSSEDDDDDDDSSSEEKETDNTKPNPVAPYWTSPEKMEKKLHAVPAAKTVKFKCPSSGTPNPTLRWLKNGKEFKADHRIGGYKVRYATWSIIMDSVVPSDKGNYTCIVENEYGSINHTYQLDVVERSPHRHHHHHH
In short: as §1

[6] = target: T6, FGFR1 D2 point mutant I91A (human, UniProt P11362 22-254)
T6 chain: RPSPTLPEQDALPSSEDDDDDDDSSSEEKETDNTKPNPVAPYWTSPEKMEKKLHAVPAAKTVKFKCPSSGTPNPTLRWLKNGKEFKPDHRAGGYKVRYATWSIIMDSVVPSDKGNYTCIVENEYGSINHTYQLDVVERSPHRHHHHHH
In short: as §1

[7] = target: T7, FGFR1 D2 point mutant G93A (human, UniProt P11362 22-254)
T7 chain: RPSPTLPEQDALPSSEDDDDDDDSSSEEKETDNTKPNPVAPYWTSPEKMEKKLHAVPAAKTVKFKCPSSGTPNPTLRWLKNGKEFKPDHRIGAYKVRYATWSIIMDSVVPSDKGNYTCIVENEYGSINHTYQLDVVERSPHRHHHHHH
In short: as §1

[8] = target: T8, FGFR1 D2 point mutant T100A (human, UniProt P11362 22-254)
T8 chain: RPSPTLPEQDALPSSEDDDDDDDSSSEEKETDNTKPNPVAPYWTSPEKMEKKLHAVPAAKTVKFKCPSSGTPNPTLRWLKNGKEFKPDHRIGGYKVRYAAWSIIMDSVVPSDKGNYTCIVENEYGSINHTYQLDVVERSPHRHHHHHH
In short: as §1

[9] = target: T9, FGFR1 D2 point mutant I104A (human, UniProt P11362 22-254)
T9 chain: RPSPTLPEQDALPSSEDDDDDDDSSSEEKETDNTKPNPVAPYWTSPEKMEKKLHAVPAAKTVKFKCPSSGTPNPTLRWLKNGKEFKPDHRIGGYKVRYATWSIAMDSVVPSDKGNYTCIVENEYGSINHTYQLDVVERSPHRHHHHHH
In short: as §1

[10] = target: T10, FGFR1 D2 point mutant D106A (human, UniProt P11362 22-254)
T10 chain: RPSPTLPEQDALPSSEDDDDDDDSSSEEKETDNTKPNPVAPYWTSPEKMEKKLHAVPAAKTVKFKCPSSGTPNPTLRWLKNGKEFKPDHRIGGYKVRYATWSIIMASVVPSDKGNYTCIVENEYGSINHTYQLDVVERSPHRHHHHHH
In short: as §1

B1: mAb #A08 (antibody, V domains shown)
VH: EVQLQESGPGLVKPSGTLSLTCAVSGGSISSNNWWSWVRQPPGKGLEWIGEIYHSGSTSYNPSLKSRVTISVDKSKNQFSLKLNSVTAADTAVYYCARGTDWFDPWGQGTLVTVSS
VL: QAVLTQPPSVSVAPGQTARITCGGNNIGSESVHWYQQKPGQAPVLVVYDDSDRPSGIPERFSGSNSGNTATLTISRVEAGDEADYYCQVWDSTSDHRVFGGGTKLTVL
notes: Only variable domains are tied to the name mAb #A08 (hit); also called #A08 hit; mAb #08
[1]
  ΔΔGmut: 0 kJ/mol
[2]
  ΔΔGmut: 0.711 kJ/mol
[3]
  ΔΔGmut: 0.0837 kJ/mol
[4]
  ΔΔGmut: -0.167 kJ/mol
[5]
  ΔΔGmut: 0.335 kJ/mol
[6]
  ΔΔGmut: 0 kJ/mol
[7]
  ΔΔGmut: 1.21 kJ/mol
[8]
  ΔΔGmut: 0.502 kJ/mol
[9]
  ΔΔGmut: 3.89 kJ/mol
[10]
  ΔΔGmut: 8.03 kJ/mol
